# Assay results as given in US20220177834A1, “STABLE SYSTEM FOR THE IN VITRO CULTURE OF CEREBELLAR GRANULE CELL PRECURSORS (GCP), STABLE METHOD FOR THE IN VITRO CULTURE OF SAID CELLS AND USE OF SAID SYSTEM OR METHOD FOR IN VITRO CULTURE” (UNIVERSITA DEGLI STUDI Dl ROMA "LA SAPIENZA", priority 2019, published 2022).
# B1: EGF: Epidermal Growth Factor (protein, UniProt P01133 23-1207, looked up)
# Pro-epidermal growth factor: PQHWSCPEGTLAGNGNSTCVGPAPFLIFSHGNSIFRIDTEGTNYEQLVVDAGVSVIMDFHYNEKRIYWVDLERQLLQRVFLNGSRQERVCNIEKNVSGMAINWINEEVIWSNQQEGIITVTDMKGNNSHILLSALKYPANVAVDPVERFIFWSSEVAGSLYRADLDGVGVKALLETSEKITAVSLDVLDKRLFWIQYNREGSNSLICSCDYDGGSVHISKHPTQHNLFAMSLFGDRIFYSTWKMKTIWIANKHTGKDMVRINLHSSFVPLGELKVVHPLAQPKAEDDTWEPEQKLCKLRKGNCSSTVCGQDLQSHLCMCAEGYALSRDRKYCEDVNECAFWNHGCTLGCKNTPGSYYCTCPVGFVLLPDGKRCHQLVSCPRNVSECSHDCVLTSEGPLCFCPEGSVLERDGKTCSGCSSPDNGGCSQLCVPLSPVSWECDCFPGYDLQLDEKSCAASGPQPFLLFANSQDIRHMHFDGTDYGTLLSQQMGMVYALDHDPVENKIYFAHTALKWIERANMDGSQRERLIEEGVDVPEGLAVDWIGRRFYWTDRGKSLIGRSDLNGKRSKIITKENISQPRGIAVHPMAKRLFWTDTGINPRIESSSLQGLGRLVIASSDLIWPSGITIDFLTDKLYWCDAKQSVIEMANLDGSKRRRLTQNDVGHPFAVAVFEDYVWFSDWAMPSVMRVNKRTGKDRVRLQGSMLKPSSLVVVHPLAKPGADPCLYQNGGCEHICKKRLGTAWCSCREGFMKASDGKTCLALDGHQLLAGGEVDLKNQVTPLDILSKTRVSEDNITESQHMLVAEIMVSDQDDCAPVGCSMYARCISEGEDATCQCLKGFAGDGKLCSDIDECEMGVPVCPPASSKCINTEGGYVCRCSEGYQGDGIHCLDIDECQLGEHSCGENASCTNTEGGYTCMCAGRLSEPGLICPDSTPPPHLREDDHHYSVRNSDSECPLSHDGYCLHDGVCMYIEALDKYACNCVVGYIGERCQYRDLKWWELRHAGHGQQQKVIVVAVCVVVLVMLLLLSLWGAHYYRTQKLLSKNPKNPYEESSRDVRSRRPADTEDGMSSCPQPWFVVIKEHQDLKNGGQPVAGEDGQAADGSMQPTSWRQEPQLCGMGTEQGCWIPVSSDKGSCPQVMERSFHMPSYGTQTLEGGVEKPHSLLSANPLWQQRALDPPHQMELTQ
# modifications: Pro-epidermal growth factor
# What was measured:
# Shh pathway = Shh pathway expression (Gli1, N-Myc; Western Blot, real time Q-PCR) in GCP neurosphere cultures; assay type: cell-based, mouse; settings: factor alone, FIG. 4
# Method: (§1) After surgical resection from a mouse on the seventh day of postnatal life (P7) the cerebellum was mechanically shredded in a buffer containing HBSS, glucose and antibiotics, and DNase (at concentrations as defined above) and the individual cells thus obtained were counted and plated at a dilution of 16000 cells/cm^2 on a medium composed of DMEM-F12, glucose, Vitamin A-free B27, insulin, NALC, heparin, antibiotics (at concentrations as defined above) and SAG (200 nM) and EGF ([…]). On this medium the cells can be enriched and maintained for an unlimited time, after periodical dissociation of the spheres with Accutase® (2-3 times per week) and propagation by dilution (to prevent excessive growth and consequent death from nutrient deficiency and hypoxia). The reaction conditions were as described above.
# GCP cells = assay: Clonogenicity / long-term propagation of GCP neurosphere cultures; assay type: cell-based, mouse
# Method: as §1
molecule,measurement,setting,value
B1,expression of markers typical of GCP,Shh pathway,does not express the markers typical of GCP
same,proliferative power of GCP cells,GCP cells,ensures its unlimited proliferative power
